Results from patent US20250361288A1 (Gilead, published 2025).

How the values were obtained:
Assay in all cases: phage ELISA
[1] = target: T1, human LTβR extracellular domain fused with an Fc fragment at the C-terminus (human, UniProt P36941 31-227)
T1 construct: extracellular domain; Bought; also called hLTβR; not shown: Fc fragment at the C-terminus
Experimental: (§1) Individual clones from the fourth selection round were grown in 96-well deep well blocks in 100 μl of 2YT broth supplemented with 50 μg/ml ampicillin at 37° C. and 220 rpm for 5 hours. Then, 5 μl of helper phages were added to each well and incubated at 37° C. for 30 minutes. After centrifuging at 3,000 rpm for 10 minutes, the cells were resuspended and grown overnight in 150 μl/well of 2YT broth supplemented with 50 μg/ml ampicillin and 50 μg/ml kanamycin.
(§2) For the ELISA screening, 96-well ELISA plates were coated with target proteins (1 μg/ml in PBS) at 4° C. overnight and then blocked with 2% BSA for 2 hours at room temperature. The supernatant containing phage particles was added to the plates and incubated at room temperature for 1 hour. After incubation, the plates were washed five times with PBST. HRP (horseradish peroxidase) conjugated anti-M13 antibody (Sino Biological, China) was added to the wells and incubated at room temperature for 1 hour. Following another round of washing five times with PBST, 50 μl of TMB (3,3′, 5,5″-tetramethylbenzidine, #34029, ThemoFisher) was added to each well. After 5 minutes, the reaction was stopped by adding 50 μl stop solution (#C1058, Solarbio, China). The absorbance at 450 nm (OD450) was measured using a plate reader (SpectraMax M5, Molecule Devices). Wells coated with BSA were used as negative controls. Phage clones with an ELISA score ratio (target/BSA)>3 were considered positive clones.

[2] = target: T2, mouse LTβR extracellular domain fused with an Fc fragment at the C-terminus (mouse, UniProt P50284 31-223)
T2 construct: extracellular domain; Bought; also called mLTβR; not shown: Fc fragment at the C-terminus
Experimental: as §1, §2

[3] = target: T3, human HVEM extracellular domain fused with an Fc fragment at the C-terminus (human, UniProt Q92956 39-202)
T3 construct: extracellular domain; Bought; also called hHVEM; not shown: Fc fragment at the C-terminus
T3 sequence (looked up): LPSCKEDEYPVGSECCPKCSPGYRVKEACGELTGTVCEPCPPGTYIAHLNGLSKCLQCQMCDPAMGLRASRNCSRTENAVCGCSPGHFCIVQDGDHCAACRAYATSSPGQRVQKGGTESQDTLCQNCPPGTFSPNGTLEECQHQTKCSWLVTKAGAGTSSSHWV
Experimental: as §1, §2

Measured: binding result

T2 sequence (P50284 31-223): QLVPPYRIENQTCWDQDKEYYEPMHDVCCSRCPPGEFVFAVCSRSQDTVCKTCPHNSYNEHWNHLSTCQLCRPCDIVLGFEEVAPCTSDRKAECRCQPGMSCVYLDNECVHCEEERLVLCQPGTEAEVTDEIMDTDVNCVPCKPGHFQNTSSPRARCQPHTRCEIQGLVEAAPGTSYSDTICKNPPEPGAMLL
T1 sequence (P36941 31-227): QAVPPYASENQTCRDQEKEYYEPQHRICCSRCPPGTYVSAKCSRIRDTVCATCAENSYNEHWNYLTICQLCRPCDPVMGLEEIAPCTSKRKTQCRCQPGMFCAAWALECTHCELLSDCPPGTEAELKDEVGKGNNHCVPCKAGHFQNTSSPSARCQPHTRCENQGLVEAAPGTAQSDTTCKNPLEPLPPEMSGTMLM

B1: LIGHT-53 (ligand)
chain: DGPAGSWEQLIQERRSHEVNPAAHLTGANSSLTGSGGPLLWETNLGLAFLRGLSYHDGALVVTKAGYYYIYSKVQLGGVGCPLGLASTITHGLYKRTPRYPEELELLVSQQSPCGRATSSSRVWWDSSFLGGVVHLEAGEKVVVRVSDERLVRTRDGTRSYFGAFMV
notes: Printed mutations: Q117N, L220S, L227T; Soluble protein carries an N-terminal His tag
binds: all assays above

B2: LIGHT-57 (ligand)
chain: DGPAGSWEQLIQERRSHEVNPAAHLTGANSSLTGSGGPLLWETQLGLAFLRGLSYHDGALVVTKAGYYYIYSKVQLGGVGCPLGLASTITHGLYKRTPRYPEELELLVSQQSPCGRATSSSRVWWDSSFLGGVVHLEAGEKVVVRVSDERLVRTRDGTRSYFGAFMV
notes: Printed mutations: L220S, L227T; Soluble protein carries an N-terminal His tag
binds: all assays above

B3: LIGHT-64 (ligand)
chain: DGPAGSWEQLIQERRSHEVNPAAHLTGANSSLTGSGGPLLWETQLGLAFLRGLSYHDGALVVTKAGYYYIYSKVQLGGVGCPLGLASPITHGLYKRTPRYPEELELLVSQQSPCGRATSSSRVWWDSSFLGGVVHLEAGEKVVVRVSDERLVRTRDGTRSYFGAFMV
notes: Printed mutations: T161P, L220S, L227T; Soluble protein carries an N-terminal His tag
binds: all assays above

B4: LIGHT-54 (ligand)
chain: DGPAGSWEQLIQERRSHEVNPAAHLTGANSSLTGSGGPLLWETELGLAFLRGLSYHDGALVVTKAGYYYIYSKVQLGGVGCPLGLASTITHGLYKRTPRYPEELELLVSQQSPCGRATSSSRVWWDSSFLGGVVHLEAGEKVVVRVSDERLVRTRDGTRSYFGAFMV
notes: Printed mutations: Q117E, L220S, L227T; Soluble protein carries an N-terminal His tag
binds: all assays above

B5: LIGHT-62 (ligand)
chain: DGPAGSWEQLIQERRSHEVNPAAHLTGANSSLTGSGGPLLWETQLGLAFLRGLSYHDGALVVTKAGYYYIYSKVQLGGVGCPLGLAGGITHGLYKRTPRYPEELELLVSQQSPCGRATSSSRVWWDSSFLGGVVHLEAGEKVVVRVTDERLVRLRDGTRSYFGAFMV
notes: Printed mutations: S160G, T161G, L220T; Soluble protein carries an N-terminal His tag
binds: all assays above

B6: LIGHT-63 (ligand)
chain: DGPAGSWEQLIQERRSHEVNPAAHLTGANSSLTGSGGPLLWETQLGLAFLRGLSYHDGALVVTKAGYYYIYSKVQLGGVGCPLGLASGITHGLYKRTPRYPEELELLVSQQSPCGRATSSSRVWWDSSFLGGVVHLEAGEKVVVRVSDERLVRTRDGTRSYFGAFMV
notes: Printed mutations: T161G, L220S, L227T; Soluble protein carries an N-terminal His tag
binds: all assays above

B7: LIGHT-55 (ligand)
chain: DGPAGSWEQLIQERRSHEVNPAAHLTGANSSLTGSGGPLLWETNLGLAFLRGLSYHDGALVVTKAGYYYIYSKVQLGGVGCPLGLASTITHGLYKRTPRYPEELELLVSQQSPCGRATSSSRVWWDSSFLGGVVHLEAGEKVVVRVTDERLVRTRDGTRSYFGAFMV
notes: Printed mutations: Q117N, L220T, L227T; Soluble protein carries an N-terminal His tag
binds: all assays above

B8: LIGHT-69 (ligand)
chain: DGPAGSWEQLIQERRSHEVNPAAHLTGANSSLTGSGGPLLWETQLGLAFLRGLSYHDGALVVTKAGYYYIYSKVQLGGVGCPLGLAGPITHGLYKRTPRYPEELELLVSQQSPCGRATSSSRVWWDSSFLGGVVHLEAGEKVVVRVSDERLVRTRDGTRSYFGAFMV
notes: Printed mutations: S160G, T161P, L220S, L227T; Soluble protein carries an N-terminal His tag
binds: all assays above

B9: LIGHT-66 (ligand)
chain: DGPAGSWEQLIQERRSHEVNPAAHLTGANSSLTGSGGPLLWETQLGLAFLRGLSYHDGALVVTKAGYYYIYSKVQLGGVGCPLGLAGTITHGLYKRTPRYPEELELLVSQQSPCGRATSSSRVWWDSSFLGGVVHLEAGEKVVVRVTDERLVRTRDGTRSYFGAFMV
notes: Printed mutations: S160G, L220T, L227T; Soluble protein carries an N-terminal His tag
binds: all assays above

B10: LIGHT-68 (ligand)
chain: DGPAGSWEQLIQERRSHEVNPAAHLTGANSSLTGSGGPLLWETQLGLAFLRGLSYHDGALVVTKAGYYYIYSKVQLGGVGCPLGLAGGITHGLYKRTPRYPEELELLVSQQSPCGRATSSSRVWWDSSFLGGVVHLEAGEKVVVRVSDERLVRTRDGTRSYFGAFMV
notes: Printed mutations: S160G, T161G, L220S, L227T; Soluble protein carries an N-terminal His tag
binds: all assays above

B11: LIGHT-71 (ligand)
chain: DGPAGSWEQLIQERRSHEVNPAAHLTGANSSLTGSGGPLLWETNLGLAFLRGLSYHDGALVVTKAGYYYIYSKVQLGGVGCPLGLASPITHGLYKRTPRYPEELELLVSQQSPCGRATSSSRVWWDSSFLGGVVHLEAGEKVVVRVSDERLVRTRDGTRSYFGAFMV
notes: Printed mutations: Q117N, T161P, L220S, L227T; Soluble protein carries an N-terminal His tag
binds: all assays above

B12: LIGHT-56 (ligand)
chain: DGPAGSWEQLIQERRSHEVNPAAHLTGANSSLTGSGGPLLWETELGLAFLRGLSYHDGALVVTKAGYYYIYSKVQLGGVGCPLGLASTITHGLYKRTPRYPEELELLVSQQSPCGRATSSSRVWWDSSFLGGVVHLEAGEKVVVRVTDERLVRTRDGTRSYFGAFMV
notes: Printed mutations: Q117E, L220T, L227T; Soluble protein carries an N-terminal His tag
binds: all assays above

B13: LIGHT-59 (ligand)
chain: DGPAGSWEQLIQERRSHEVNPAAHLTGANSSLTGSGGPLLWETQLGLAFLRGLSYHDGALVVTKAGYYYIYSKVQLGGVGCPLGLAGPITHGLYKRTPRYPEELELLVSQQSPCGRATSSSRVWWDSSFLGGVVHLEAGEKVVVRVSDERLVRLRDGTRSYFGAFMV
notes: Printed mutations: S160G, T161P, L220S; Soluble protein carries an N-terminal His tag
binds: all assays above

B14: LIGHT-65 (ligand)
chain: DGPAGSWEQLIQERRSHEVNPAAHLTGANSSLTGSGGPLLWETQLGLAFLRGLSYHDGALVVTKAGYYYIYSKVQLGGVGCPLGLAGTITHGLYKRTPRYPEELELLVSQQSPCGRATSSSRVWWDSSFLGGVVHLEAGEKVVVRVSDERLVRTRDGTRSYFGAFMV
notes: Printed mutations: S160G, L220S, L227T; Soluble protein carries an N-terminal His tag
binds: all assays above

B15: LIGHT-67 (ligand)
chain: DGPAGSWEQLIQERRSHEVNPAAHLTGANSSLTGSGGPLLWETQLGLAFLRGLSYHDGALVVTKAGYYYIYSKVQLGGVGCPLGLASSITHGLYKRTPRYPEELELLVSQQSPCGRATSSSRVWWDSSFLGGVVHLEAGEKVVVRVSDERLVRTRDGTRSYFGAFMV
notes: Printed mutations: T161S, L220S, L227T; Soluble protein carries an N-terminal His tag
binds: all assays above

B16: LIGHT-70 (ligand)
chain: DGPAGSWEQLIQERRSHEVNPAAHLTGANSSLTGSGGPLLWETNLGLAFLRGLSYHDGALVVTKAGYYYIYSKVQLGGVGCPLGLASGITHGLYKRTPRYPEELELLVSQQSPCGRATSSSRVWWDSSFLGGVVHLEAGEKVVVRVSDERLVRTRDGTRSYFGAFMV
notes: Printed mutations: Q117N, T161G, L220S, L227T; Soluble protein carries an N-terminal His tag
binds: all assays above
